B1: His6-tagged β′200-309 (pTA538) (enzyme)
chain: QLREELNETNSETKRKKLTKRIKLLEAFVQSGNKPEWMILTVLPVLPPDLRPLVPLDGGRFATSDLNDLYRRVINRNNRLKRLLDLAAPDIIVRNEKRMLQEAVDALLDN
B2: His6-HMK-β′1-300 (pTA524) (enzyme)
chain: MKDLLKFLKAQTKTEEFDAIKIALASPDMIRSWSFGEVKKPETINYRTFKPERDGLFCARIFGPVKDYECLCGKYKRLKHRGVICEKCGVEVTQTKVRRERMGHIELASPTAHIWFLKSLPSRIGLLLDMPLRDIERVLYFESYVVIEGGMTNLERQQILTEEQYLDALEEFGDEFDAKMGAEAIQALLKSMDLEQECEQLREELNETNSETKRKKLTKRIKLLEAFVQSGNKPEWMILTVLPVLPPDLRPLVPLDGGRFATSDLNDLYRRVINRNNRLKRLLDLAAPDIIVRNEKRMLQ
notes: range 1-300
B3: His6-HMK-β′1-280 (pTA523) (enzyme)
chain: MKDLLKFLKAQTKTEEFDAIKIALASPDMIRSWSFGEVKKPETINYRTFKPERDGLFCARIFGPVKDYECLCGKYKRLKHRGVICEKCGVEVTQTKVRRERMGHIELASPTAHIWFLKSLPSRIGLLLDMPLRDIERVLYFESYVVIEGGMTNLERQQILTEEQYLDALEEFGDEFDAKMGAEAIQALLKSMDLEQECEQLREELNETNSETKRKKLTKRIKLLEAFVQSGNKPEWMILTVLPVLPPDLRPLVPLDGGRFATSDLNDLYRRVINRNNRLK
notes: range 1-280
B4: His6-tagged β′60-309 (pTA532) (enzyme)
chain: RIFGPVKDYECLCGKYKRLKHRGVICEKCGVEVTQTKVRRERMGHIELASPTAHIWFLKSLPSRIGLLLDMPLRDIERVLYFESYVVIEGGMTNLERQQILTEEQYLDALEEFGDEFDAKMGAEAIQALLKSMDLEQECEQLREELNETNSETKRKKLTKRIKLLEAFVQSGNKPEWMILTVLPVLPPDLRPLVPLDGGRFATSDLNDLYRRVINRNNRLKRLLDLAAPDIIVRNEKRMLQEAVDALLDN
B5: His6-tagged β′33-309 (pTA531) (enzyme)
chain: WSFGEVKKPETINYRTFKPERDGLFCARIFGPVKDYECLCGKYKRLKHRGVICEKCGVEVTQTKVRRERMGHIELASPTAHIWFLKSLPSRIGLLLDMPLRDIERVLYFESYVVIEGGMTNLERQQILTEEQYLDALEEFGDEFDAKMGAEAIQALLKSMDLEQECEQLREELNETNSETKRKKLTKRIKLLEAFVQSGNKPEWMILTVLPVLPPDLRPLVPLDGGRFATSDLNDLYRRVINRNNRLKRLLDLAAPDIIVRNEKRMLQEAVDALLDN
B6: β′260-309 with C-terminal His6 (pTA546) (enzyme)
chain: FATSDLNDLYRRVINRNNRLKRLLDLAAPDIIVRNEKRMLQEAVDALLDNHHHHHH
B7: His6-tagged β′178-309 (pTA537) (enzyme)
chain: AKMGAEAIQALLKSMDLEQECEQLREELNETNSETKRKKLTKRIKLLEAFVQSGNKPEWMILTVLPVLPPDLRPLVPLDGGRFATSDLNDLYRRVINRNNRLKRLLDLAAPDIIVRNEKRMLQEAVDALLDN
B8: His6-tagged β′100-309 (pTA533) (enzyme)
chain: ERMGHIELASPTAHIWFLKSLPSRIGLLLDMPLRDIERVLYFESYVVIEGGMTNLERQQILTEEQYLDALEEFGDEFDAKMGAEAIQALLKSMDLEQECEQLREELNETNSETKRKKLTKRIKLLEAFVQSGNKPEWMILTVLPVLPPDLRPLVPLDGGRFATSDLNDLYRRVINRNNRLKRLLDLAAPDIIVRNEKRMLQEAVDALLDN

The assay concerns the target T1, σ70, native, untagged (pLN12) (Escherichia coli, UniProt P00579 1-613).
T1 construct: range 1-613; also called native ?^70
Kind of assay: Ni-NTA co-immobilization, SDS-PAGE.
B1: the binding result is “binds”. To B2 belongs “no binding”; to B3, “no binding”; to B4, “binds”. Consider B5, for which the binding result is listed as “binds”.

Consider B6, for which the binding result is “binds”. To B7 belongs “binds”; to B8, “binds”.

The values above are taken from US20030104423A1 (WISCONSIN ALUMNI RESEARCH FOUNDATION, published 2003).
